This note sets out measurements from patent US20130059806A1.

Experiment [1] concerns the target biotin-FLAG-tagged TR2 and TR4 (biotin-FLAG-TR2 and biotin-FLAG-TR4 co-expressed in BirA-expressing MEL cells) (UniProt Q505F1). In words: streptavidin purification of biotin-tagged TR2/TR4 from MEL nuclear extract, mass spectrometry, experiment #1.
The target is the same in experiment [2]. In words: streptavidin purification of biotin-tagged TR2/TR4 from MEL nuclear extract, mass spectrometry, experiment #3.
Experiment [3] shares this target. In words: streptavidin purification of biotin-tagged TR2/TR4 from MEL nuclear extract, mass spectrometry, experiment #2.

Chain of biotin-FLAG-tagged TR2 and TR4 (biotin-FLAG-TR2 and biotin-FLAG-TR4 co-expressed in BirA-expressing MEL cells) (Q505F1 whole entry, chain 1 of 2): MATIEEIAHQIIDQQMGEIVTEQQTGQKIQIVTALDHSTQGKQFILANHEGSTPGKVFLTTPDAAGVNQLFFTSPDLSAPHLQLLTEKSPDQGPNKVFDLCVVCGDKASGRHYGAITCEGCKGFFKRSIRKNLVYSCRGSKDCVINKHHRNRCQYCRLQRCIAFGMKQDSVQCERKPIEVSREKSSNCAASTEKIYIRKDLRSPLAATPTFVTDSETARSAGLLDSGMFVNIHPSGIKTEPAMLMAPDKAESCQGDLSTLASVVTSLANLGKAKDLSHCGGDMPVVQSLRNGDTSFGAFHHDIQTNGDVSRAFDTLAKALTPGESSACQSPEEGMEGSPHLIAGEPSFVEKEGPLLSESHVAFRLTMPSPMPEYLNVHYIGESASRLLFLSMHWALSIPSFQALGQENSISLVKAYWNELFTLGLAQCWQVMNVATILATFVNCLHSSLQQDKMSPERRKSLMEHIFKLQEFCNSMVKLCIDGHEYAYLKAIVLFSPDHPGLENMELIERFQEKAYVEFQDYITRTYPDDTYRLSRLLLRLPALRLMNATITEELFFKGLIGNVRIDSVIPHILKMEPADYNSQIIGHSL
Chain of biotin-FLAG-tagged TR2 and TR4 (biotin-FLAG-TR2 and biotin-FLAG-TR4 co-expressed in BirA-expressing MEL cells) (P49117 whole entry, chain 2 of 2, further chain): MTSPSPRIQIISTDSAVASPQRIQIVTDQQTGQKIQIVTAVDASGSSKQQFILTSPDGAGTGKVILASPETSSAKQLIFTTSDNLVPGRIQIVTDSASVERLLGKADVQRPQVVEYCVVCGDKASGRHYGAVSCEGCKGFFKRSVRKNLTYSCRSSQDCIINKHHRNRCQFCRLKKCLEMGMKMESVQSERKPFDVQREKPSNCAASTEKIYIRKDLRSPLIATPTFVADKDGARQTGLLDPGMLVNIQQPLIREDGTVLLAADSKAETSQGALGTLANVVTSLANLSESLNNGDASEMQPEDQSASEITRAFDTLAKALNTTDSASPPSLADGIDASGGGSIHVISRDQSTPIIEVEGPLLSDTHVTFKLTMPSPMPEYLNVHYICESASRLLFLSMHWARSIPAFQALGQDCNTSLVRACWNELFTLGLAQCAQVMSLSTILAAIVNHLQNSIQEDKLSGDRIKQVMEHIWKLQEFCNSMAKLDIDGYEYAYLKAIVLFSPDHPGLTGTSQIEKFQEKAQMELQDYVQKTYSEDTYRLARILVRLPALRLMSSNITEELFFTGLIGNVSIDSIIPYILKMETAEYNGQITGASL

Regarding PSPC1 (from UniProt Q8R326 1-523), the % coverage in experiment [1] came out at 3.3%; in experiment [2], 4.6%; in experiment [3] it was 7.8%. The total peptides is 1 peptides in experiment [1], 2 peptides in experiment [2] and 3 peptides in experiment [3].
In the case of “BRG1 (from UniProt Q3TKT4 1-1613) (enzyme)”, in experiment [1], the % coverage was found to be 1.4% and the total peptides came to 2 peptides. In experiment [2], this substance gave a % coverage of 0.8% and a total peptides of 1 peptides.
For “HCF1 (Host Cell Factor 1) (from UniProt Q61191 2-2045)”, the results for the % coverage in experiment [1], in experiment [2] and in experiment [3] were 2.5%, 0.8% and 1.4%, respectively. For the same substance, the total peptides in experiment [1] came out at 4 peptides; in experiment [2], 1 peptides; in experiment [3] it was 2 peptides.
With MTA1 (from UniProt Q8K4B0 1-715), the % coverage came out at 8.7% in experiment [1], 1.8% in experiment [2] and 1.7% in experiment [3]. Moreover, the total peptides in experiment [1] came out at 7 peptides; in experiment [2], 1 peptides; in experiment [3], 1 peptides.
Take CAPER (from UniProt Q8VH51 2-530): in experiment [2], the % coverage was found to be 2.6% and the total peptides is 1 peptides. In experiment [3], this substance displayed a % coverage of 4.9% and a total peptides of 2 peptides.
“DNA methyltransferase 1 (DNMT1) (from UniProt P13864 1-1620) (enzyme)”: the values for the % coverage in experiment [1], in experiment [2] and in experiment [3] were 13.5%, 10.4% and 10.1%, respectively. Moreover, the values for the total peptides in experiment [1], in experiment [2] and in experiment [3] were 35 peptides, 15 peptides and 14 peptides, respectively.
As for “HDAC2 (from UniProt P70288 1-488) (enzyme)”, in experiment [2], the % coverage was 4.9% and the total peptides came out at 2 peptides.
In experiment [2], Sin3A (from UniProt Q60520 1-1274) yielded a % coverage of 1.1% and a total peptides of 1 peptides.
Take “Mi2β (from UniProt Q6PDQ2 1-1915) (enzyme)”: the % coverage came out at 1.1% in experiment [1], 4.4% in experiment [2] and 5.3% in experiment [3]. Besides, the total peptides in experiment [1] worked out at 1 peptides; in experiment [2] it was 6 peptides; in experiment [3], 4 peptides.
In experiment [1], RbAp46 (from UniProt Q60973 2-425) returned a % coverage of 2% and a total peptides of 2 peptides. In experiment [3], this substance gave a % coverage of 6.8% and a total peptides of 3 peptides.
As for “transcriptional intermediary factor (TIF)-1beta (from UniProt Q62318 2-834)”, the results for the % coverage in experiment [1], in experiment [2] and in experiment [3] were 12.7%, 1.8% and 9%, respectively. The results for the total peptides in experiment [1], in experiment [2] and in experiment [3] were 16 peptides, 1 peptides and 6 peptides, respectively.
As for RbAp48 (from UniProt Q60972 2-425), the figures for the % coverage in experiment [1], in experiment [2] and in experiment [3] were 2%, 1.9% and 6.3%, respectively. For the same substance, the results for the total peptides in experiment [1], in experiment [2] and in experiment [3] were 2 peptides, 1 peptides and 3 peptides, respectively.
For the substance SFPQ (from UniProt Q8VIJ6 1-699), the figures for the % coverage in experiment [1], in experiment [2] and in experiment [3] were 15.3%, 18.2% and 15.9%, respectively. For the same substance, the values for the total peptides in experiment [1], in experiment [2] and in experiment [3] were 12 peptides, 10 peptides and 8 peptides, respectively.
In experiment [1], “HDAC1 (from UniProt O09106 1-482) (enzyme)” came in with a % coverage of 4.4% and a total peptides of 2 peptides. Further, in experiment [2], the % coverage turned out to be 8.9% and the total peptides amounted to 3 peptides.
In experiment [1], MTA2 (from UniProt Q9R190 1-668) had a % coverage of 2.8% and a total peptides of 2 peptides.
As to NonO (from UniProt Q99K48 1-473), the figures for the % coverage in experiment [1], in experiment [2] and in experiment [3] were 7.8%, 11% and 17.8%, respectively. For the same substance, the total peptides was found to be 10 peptides in experiment [1], 7 peptides in experiment [2] and 9 peptides in experiment [3].
